Measured values: patent publication US20130064834A1 (published 2013)
Blank lines part the entries; values can stand above or below the binder they belong to.

Tests used:
hPCSK9(D129G) = biological target: T1, hPCSK9(D129G) (human, UniProt Q8NBP7 31-692); assay: SPR, mAb captured, 25C;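 note: antibodies held on a sensor chip bearing chemically coupled F(ab′)2 anti-human IgG as the capture surface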
T1 construct: mmh-tagged variant hPCSK9
Excerpt: (§1) Each selected antibody was captured on a F(ab′)2 anti-hIgG surface created through direct chemical coupling to a BIACORE™ chip to form a captured antibody surface.

hPCSK9(P70A) = hPCSK9(P70A) (human, UniProt Q8NBP7 31-692); assay: SPR, mAb captured, 25C;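 note: antibodies held on a sensor chip bearing chemically coupled F(ab′)2 anti-human IgG as the capture surface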
Excerpt: as §1

hPCSK9(S147F) = biological target: T2, hPCSK9(S147F) (human, UniProt Q8NBP7 31-692); assay: SPR, mAb captured, 25C;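 note: antibodies held on a sensor chip bearing chemically coupled F(ab′)2 anti-human IgG as the capture surface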
T2 construct: mmh-tagged variant hPCSK9
Excerpt: as §1

hPCSK9(V380M) = biological target: T3, hPCSK9(V380M) (human, UniProt Q8NBP7 31-692); assay: SPR, mAb captured, 25C;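 note: antibodies held on a sensor chip bearing chemically coupled F(ab′)2 anti-human IgG as the capture surface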
T3 construct: mmh-tagged variant hPCSK9
Excerpt: as §1

hPCSK9(E159R) = biological target: T4, hPCSK9(E159R) (human, UniProt Q8NBP7 31-692); assay: SPR, mAb captured, 25C
T4 construct: mmh-tagged variant hPCSK9
Excerpt: as §1

Human PCSK9-myc-myc-his [1] = biological target: T5, Human PCSK9-myc-myc-his (human, UniProt Q8NBP7 31-692); assay: SPR, mAb captured, 25C
T5 construct: also called hPCSK9-mmh; hPCSK9
Excerpt: as §1

Human PCSK9-myc-myc-his [2] = biological target: T5, Human PCSK9-myc-myc-his; assay: SPR, antigen captured at low density, pH 7.4, 25C
[3] = biological target: T6, his-tagged Syrian golden hamster (Mesocricetus auratus) PCSK9 (Syrian golden hamster (Mesocricetus …)); assay: competition ELISA vs EGF-A, pH 7.2
T6 construct: also called maPCSK9-h; maPCSK9
T6 chain: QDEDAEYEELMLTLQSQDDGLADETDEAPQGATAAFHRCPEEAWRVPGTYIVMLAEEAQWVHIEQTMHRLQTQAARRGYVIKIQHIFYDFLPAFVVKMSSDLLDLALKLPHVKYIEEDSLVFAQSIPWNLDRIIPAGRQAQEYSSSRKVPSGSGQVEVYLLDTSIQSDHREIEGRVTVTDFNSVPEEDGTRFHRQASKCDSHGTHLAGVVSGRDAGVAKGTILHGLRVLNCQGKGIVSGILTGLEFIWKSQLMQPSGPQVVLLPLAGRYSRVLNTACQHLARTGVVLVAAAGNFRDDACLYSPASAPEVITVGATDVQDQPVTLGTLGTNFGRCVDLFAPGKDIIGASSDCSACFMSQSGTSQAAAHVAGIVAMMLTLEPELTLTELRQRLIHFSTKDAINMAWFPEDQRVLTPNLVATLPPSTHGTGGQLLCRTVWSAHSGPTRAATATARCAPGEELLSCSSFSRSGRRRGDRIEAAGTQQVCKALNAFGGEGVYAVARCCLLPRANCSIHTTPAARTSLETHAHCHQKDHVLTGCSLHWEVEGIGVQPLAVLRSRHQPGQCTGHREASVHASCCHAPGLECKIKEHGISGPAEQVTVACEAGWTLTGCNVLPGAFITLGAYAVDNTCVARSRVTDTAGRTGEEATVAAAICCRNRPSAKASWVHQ
Description: (§2) Briefly, hLDLR-ecto, hLDLR EGF-A-hFc or hLDLR EGF-AB-hFc, each at 2 μg/ml, was coated on a 96-well plate in PBS buffer overnight at 4° C., and nonspecific binding sites blocked with BSA. […] The equilibrated sample solutions were transferred to receptor or receptor fragment coated plates.

[4] = biological target: T7, tagged rhesus monkey (Macaca mulata) PCSK9 (rhesus monkey (Macaca mulata), UniProt A8T666 31-692); assay: competition ELISA vs EGF-A, pH 7.2
T7 construct: also called mmPCSK9-mmh; mmPCSK9
Description: as §2

[5] = biological target: T8, rat (Rattus norvegicus) PCSK9, myc-myc-his tagged (rat (Rattus norvegicus), UniProt P59996 31-691); assay: competition ELISA vs EGF-A, pH 7.2
T8 construct: also called rPCSK9-mmh; rPCSK9
Description: as §2

[6] = biological target: T9, mouse PCSK9, myc-myc-his tagged (mouse, UniProt Q80W65 35-694); assay: competition ELISA vs EGF-A, pH 7.2
T9 construct: also called mPCSK9-mmh; mPCSK9
Description: as §2

[7] = biological target: T10, cynomolgus monkey (Macaca fascicularis) PCSK9, myc-myc-his tagged (cynomolgus monkey (Macaca fascicularis), UniProt A8T662 31-692 (Macaca nemestrina entry), limits assumed); assay: competition ELISA vs EGF-A, pH 7.2
T10 construct: also called mfPCSK9-mmh; mfPCSK9
Description: as §2

Human PCSK9-myc-myc-his [8] = biological target: T5, Human PCSK9-myc-myc-his; assay: competition ELISA vs EGF-A, pH 7.2
Description: as §2

Human PCSK9-myc-myc-his [9] = biological target: T5, Human PCSK9-myc-myc-his; assay: competition ELISA vs hLDLR-ecto, pH 5.5
Description: as §2

hPCSK9(D374Y)-mmh [10] = biological target: T11, hPCSK9(D374Y)-mmh (human, UniProt Q8NBP7 31-692); assay: SPR, mAb amine-coupled, 37C, pH 7.4
T11 construct: also called hPCSK(D374Y)-mmh
Excerpt: (§3) Briefly, mAbs were immobilized onto BIACORE™ CM5 sensor chips via amine coupling.

[11] = biological target: T10, cynomolgus monkey (Macaca fascicularis) …; assay: SPR, mAb amine-coupled, 37C, pH 7.4
Excerpt: as §3

Human PCSK9-myc-myc-his [12] = biological target: T5, Human PCSK9-myc-myc-his; assay: SPR, mAb amine-coupled, 37C, pH 7.4
Excerpt: as §3

hPCSK9(D374Y)-mmh [13] = biological target: T11, hPCSK9(D374Y)-mmh; assay: SPR, mAb amine-coupled, 25C, pH 5.5
Excerpt: as §3

[14] = biological target: T10, cynomolgus monkey (Macaca fascicularis) …; assay: SPR, mAb amine-coupled, 25C, pH 5.5
Excerpt: as §3

Human PCSK9-myc-myc-his [15] = biological target: T5, Human PCSK9-myc-myc-his; assay: SPR, mAb amine-coupled, 25C, pH 5.5
Excerpt: as §3

hPCSK9(D374Y)-mmh [16] = biological target: T11, hPCSK9(D374Y)-mmh; assay: competition ELISA vs EGF-AB-hFc, pH 5.5
Description: as §2

hPCSK9(D374Y)-mmh [17] = biological target: T11, hPCSK9(D374Y)-mmh; assay: SPR, mAb captured on anti-human IgG, 25C

T10 sequence (A8T662 31-692 limits assumed): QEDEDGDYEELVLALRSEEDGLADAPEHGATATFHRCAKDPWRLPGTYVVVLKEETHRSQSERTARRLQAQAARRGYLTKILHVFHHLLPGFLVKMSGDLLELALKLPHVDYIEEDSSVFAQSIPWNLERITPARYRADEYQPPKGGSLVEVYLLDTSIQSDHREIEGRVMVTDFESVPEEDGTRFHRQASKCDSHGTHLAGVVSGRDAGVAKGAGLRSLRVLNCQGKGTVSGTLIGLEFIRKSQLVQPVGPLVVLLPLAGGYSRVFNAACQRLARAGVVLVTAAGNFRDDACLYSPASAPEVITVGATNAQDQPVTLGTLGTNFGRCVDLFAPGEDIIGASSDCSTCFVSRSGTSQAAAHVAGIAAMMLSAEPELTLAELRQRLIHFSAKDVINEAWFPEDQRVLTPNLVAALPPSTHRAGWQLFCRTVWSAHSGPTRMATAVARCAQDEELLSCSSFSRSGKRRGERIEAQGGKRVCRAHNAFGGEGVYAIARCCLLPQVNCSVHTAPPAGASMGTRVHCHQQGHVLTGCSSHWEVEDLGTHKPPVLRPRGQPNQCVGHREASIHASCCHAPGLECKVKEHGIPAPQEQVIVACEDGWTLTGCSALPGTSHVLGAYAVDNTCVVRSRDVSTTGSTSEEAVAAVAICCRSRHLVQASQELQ
T7 sequence (A8T666 31-692 limits assumed): as the sequence (A8T662 31-692 limits assumed) above, with A607P, E639K counted along it
T8 sequence (P59996 31-691 limits assumed): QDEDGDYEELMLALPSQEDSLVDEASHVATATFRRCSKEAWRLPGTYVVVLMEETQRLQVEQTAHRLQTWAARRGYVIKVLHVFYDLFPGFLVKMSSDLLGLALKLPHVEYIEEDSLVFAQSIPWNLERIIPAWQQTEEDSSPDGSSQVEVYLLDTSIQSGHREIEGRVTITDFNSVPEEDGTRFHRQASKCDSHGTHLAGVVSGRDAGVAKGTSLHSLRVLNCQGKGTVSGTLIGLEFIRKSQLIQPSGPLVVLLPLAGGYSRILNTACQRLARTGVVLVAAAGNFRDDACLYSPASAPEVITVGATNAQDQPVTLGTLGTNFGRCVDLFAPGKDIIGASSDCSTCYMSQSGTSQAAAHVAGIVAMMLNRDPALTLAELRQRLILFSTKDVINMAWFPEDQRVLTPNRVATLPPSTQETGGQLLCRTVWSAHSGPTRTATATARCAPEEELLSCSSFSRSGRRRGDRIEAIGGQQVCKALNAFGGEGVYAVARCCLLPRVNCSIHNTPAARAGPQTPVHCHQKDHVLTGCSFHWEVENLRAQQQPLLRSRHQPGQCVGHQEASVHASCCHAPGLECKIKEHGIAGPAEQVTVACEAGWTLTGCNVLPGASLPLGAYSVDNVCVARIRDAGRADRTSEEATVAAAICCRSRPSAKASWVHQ
T9 sequence (Q80W65 35-694 limits assumed): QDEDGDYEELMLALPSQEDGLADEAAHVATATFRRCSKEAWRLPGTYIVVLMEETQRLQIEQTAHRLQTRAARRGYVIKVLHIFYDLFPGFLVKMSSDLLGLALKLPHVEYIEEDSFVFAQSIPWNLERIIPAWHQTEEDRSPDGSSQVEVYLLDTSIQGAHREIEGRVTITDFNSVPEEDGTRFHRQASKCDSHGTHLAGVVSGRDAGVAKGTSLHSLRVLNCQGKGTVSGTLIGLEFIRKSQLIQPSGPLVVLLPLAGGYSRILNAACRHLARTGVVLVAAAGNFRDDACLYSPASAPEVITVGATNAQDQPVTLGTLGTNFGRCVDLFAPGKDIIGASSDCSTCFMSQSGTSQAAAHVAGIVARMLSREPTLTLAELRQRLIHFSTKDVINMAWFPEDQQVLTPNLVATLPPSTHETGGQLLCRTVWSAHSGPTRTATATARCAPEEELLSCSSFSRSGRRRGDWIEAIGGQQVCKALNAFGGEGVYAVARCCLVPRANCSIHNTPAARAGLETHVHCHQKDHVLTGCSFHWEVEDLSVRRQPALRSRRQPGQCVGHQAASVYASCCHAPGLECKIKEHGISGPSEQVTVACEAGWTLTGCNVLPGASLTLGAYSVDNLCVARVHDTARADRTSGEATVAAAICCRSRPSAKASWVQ

Kd (hPCSK9(D129G)): 1.4 nM
T1/2 (hPCSK9(D129G)): 88 min
Kd (hPCSK9(P70A)): 1.68 nM
T1/2 (hPCSK9(P70A)): 80 min
Kd (hPCSK9(S147F)): 9.07 nM
T1/2 (hPCSK9(S147F)): 24 min
Kd (hPCSK9(V380M)): 2.82 nM
T1/2 (hPCSK9(V380M)): 28 min
Kd (hPCSK9(E159R)): 0.82 nM
T1/2 (hPCSK9(E159R)): 94 min
Kd (Human PCSK9-myc-myc-his [1]): 0.69 nM
T1/2 (Human PCSK9-myc-myc-his [1]): 120 min
Kd (Human PCSK9-myc-myc-his [2]): 0.31 nM
T1/2 (Human PCSK9-myc-myc-his [2]): 119 min
IC50 [3]: > 100 nM
IC50 [4]: 0.46 nM
IC50 [5]: > 100 nM
IC50 [6]: > 100 nM
IC50 [7]: 0.473 nM
IC50 (Human PCSK9-myc-myc-his [8]): 0.182 nM
IC50 (Human PCSK9-myc-myc-his [9]): 1.49 nM
Kd (hPCSK9(D374Y)-mmh [10]): 2.61 nM
T1/2 (hPCSK9(D374Y)-mmh [10]): 14 min
Kd [11]: 4.81 nM
T1/2 [11]: 8 min
Kd (Human PCSK9-myc-myc-his [12]): 2.47 nM
T1/2 (Human PCSK9-myc-myc-his [12]): 20 min
Kd (hPCSK9(D374Y)-mmh [13]): 9.03 nM
T1/2 (hPCSK9(D374Y)-mmh [13]): 3 min
Kd [14]: 38.5 nM
T1/2 [14]: 0.4 min
Kd (Human PCSK9-myc-myc-his [15]): 3.1 nM
T1/2 (Human PCSK9-myc-myc-his [15]): 5 min
IC50 (hPCSK9(D374Y)-mmh [16]): 3.94 nM
Kd (hPCSK9(D374Y)-mmh [17]): 1.06 nM
T1/2 (hPCSK9(D374Y)-mmh [17]): 49 min
B1: H1M300N (antibody, V domains shown)
VH: EMQLVESGGGLVQPGGSLRLSCAASGFTFSSHWMKWVRQAPGKGLEWVANINQDGSEKYYVDSVKGRFTISRDNAKNSLFLQMNSLRAEDTAVYYCARDIVLMVYDMDYYYYGMDVWGQGTTVTVSS
VL: not shown
notes: Fully human version made in CHO cells

B2: H1H316P (antibody, V domains shown)
VH: EVQLVESGGGLVQPGGSLRLSCAASGFTFNNYAMNWVRQAPGKGLDWVSTISGSGGTTNYADSVKGRFIISRDSSKHTLYLQMNSLRAEDTAVYYCAKDSNWGNFDLWGRGTLVTVSS
VL: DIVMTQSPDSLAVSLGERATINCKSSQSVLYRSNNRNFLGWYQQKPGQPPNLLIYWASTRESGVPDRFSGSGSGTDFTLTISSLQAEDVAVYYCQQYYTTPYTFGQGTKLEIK
notes: Fully human mAb made in CHO cells; also called mAb316P
Kd (hPCSK9(D129G)): 1.27 nM
T1/2 (hPCSK9(D129G)): 36 min
Kd (hPCSK9(P70A)): 1.42 nM
T1/2 (hPCSK9(P70A)): 32 min
Kd (hPCSK9(S147F)): 1.29 nM
T1/2 (hPCSK9(S147F)): 32 min
Kd (hPCSK9(V380M)): 0.48 nM
T1/2 (hPCSK9(V380M)): 63 min
Kd (hPCSK9(E159R)): 6.96 nM
T1/2 (hPCSK9(E159R)): 5 min
Kd (Human PCSK9-myc-myc-his [1]): 1 nM
T1/2 (Human PCSK9-myc-myc-his [1]): 37 min
Kd (Human PCSK9-myc-myc-his [2]): 0.339 nM
T1/2 (Human PCSK9-myc-myc-his [2]): 45 min
IC50 [3]: 0.349 nM
IC50 [4]: < 0.25 nM
IC50 [5]: 2.66 nM
IC50 [6]: 0.305 nM
IC50 [7]: 0.075 nM
IC50 (Human PCSK9-myc-myc-his [8]): < 0.125 nM
IC50 (Human PCSK9-myc-myc-his [9]): < 0.125 nM
Kd (hPCSK9(D374Y)-mmh [10]): 6.66 nM
T1/2 (hPCSK9(D374Y)-mmh [10]): 4 min
Kd [11]: 3.77 nM
T1/2 [11]: 11 min
Kd (Human PCSK9-myc-myc-his [12]): 4 nM
T1/2 (Human PCSK9-myc-myc-his [12]): 9 min
Kd (hPCSK9(D374Y)-mmh [13]): 0.166 nM
T1/2 (hPCSK9(D374Y)-mmh [13]): 13 min
Kd [14]: 0.008 nM
T1/2 [14]: 23 min
Kd (Human PCSK9-myc-myc-his [15]): 0.022 nM
T1/2 (Human PCSK9-myc-myc-his [15]): 39 min
IC50 (hPCSK9(D374Y)-mmh [16]): 1.14 nM
Kd (hPCSK9(D374Y)-mmh [17]): 1.78 nM
T1/2 (hPCSK9(D374Y)-mmh [17]): 14 min
